# Test results published in patent US20130064817A1.
# Biological target: human IL-23R (human) (UniProt Q5VWK5)
# Experiment: BIAcore, antibody immobilized on CM5 chip
# Sequence of human IL-23R (human) (Q5VWK5 24-353 L310P limits assumed): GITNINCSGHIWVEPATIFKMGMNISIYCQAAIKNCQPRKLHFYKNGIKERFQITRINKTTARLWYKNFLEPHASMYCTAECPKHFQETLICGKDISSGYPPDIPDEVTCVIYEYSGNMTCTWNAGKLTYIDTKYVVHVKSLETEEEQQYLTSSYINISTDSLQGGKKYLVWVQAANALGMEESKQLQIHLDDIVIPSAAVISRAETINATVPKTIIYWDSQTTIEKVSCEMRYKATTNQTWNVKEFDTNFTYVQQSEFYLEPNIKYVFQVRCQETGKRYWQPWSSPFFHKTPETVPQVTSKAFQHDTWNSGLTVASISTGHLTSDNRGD
Kd [nM],fold reduction of binding affinity against mouse 20D7 [fold],fold improvement of binding affinity against the simple humanization (hu20D7-a) [fold],Binder
4.3,50,,"humanized 20D7 antibody with hu20D7-a heavy chain variable domain (antibody, part only; not given: unnamed light chain, V domains shown, part only) VH: QVQLVQSGAEVKKPGASVKVSCKASGYTFTNYAMNWVRQAPGQGLEWMGWINTYTGEPTYNEKFKGRVTMTTDTSTSTAYMELRSLRSDDTAVYYCARGGGYDEDYFDYWGQGTLVTVSS"
0.36,,,"humanized 20D7 antibody with hu20D7-b heavy chain variable domain (T72L) (antibody, part only; not given: unnamed light chain, V domains shown, part only) VH: QVQLVQSGAEVKKPGASVKVSCKASGYTFTNYAMNWVRQAPGQGLEWMGWINTYTGEPTYSDDFKGRVTMTLDTSTSTAYMELRSLRSDDTAVYYCARGGGYDEDYFDYWGQGTLVTVSS"
0.23,,20,"humanized 20D7 antibody with hu20D7-c heavy chain variable domain (T72L, M70F) (antibody, part only; not given: unnamed light chain, V domains shown, part only) VH: QVQLVQSGAEVKKPGASVKVSCKASGYTFTNYAMNWVRQAPGQGLEWMGWINTYTGEPTYSDDFKGRVTFTLDTSTSTAYMELRSLRSDDTAVYYCARGGGYDEDYFDYWGQGTLVTVSS"
